# The RNAGym collection of RNA variant scans (doi:10.7554/elife.80360)
# B1: HDV Ribozyme (parent)
# chain: GGCCGGCAUGGUCCCAGCCUCCUCGCUGGCGCCGGCUGGGCAACAUUCCGAGGGGACCGUCCCCUCGGUAAUGGCGAAUGGGACCCA
# Variants of: B1
# Test: self-cleavage, relative activity (ratio to wild type); higher = more cleavage; co-transcriptional
row,Variant,self-cleavage
1,G35A G67U,0.361
2,G34C G59U,0.0415
3,G40A A45C,0.671
4,G11A U79G,0.0923
5,G2C U79C,0.101
6,C33U C36G,0.0665
7,A8G C84U,0.864
8,C48U G53A,0.888
9,C44U U46C,0.571
10,C18G C66A,0.0437
11,C32A G55C,0.133
12,G1U C33G,0.248
13,C13A G34C,0.151
14,G80A A87C,0.33
15,C58U A83U,0.453
16,G29A C36G,0.111
17,C14G G54U,0.776
18,G53U U72C,0.563
19,U9A G50C,0.898
20,U27G G35A,0.295
21,G54C C63U,0.774
22,C26U C32G,0.125
23,C61U U69A,0.914
24,A8C A51G,0.997

row,Variant,self-cleavage
1,C41U C84A,0.78
2,C41U A43C,0.831
3,A16C A87C,0.671
4,G59A A77G,0.867
5,G53U A77C,0.453
6,C57G G74A,0.277
7,G50U U79G,0.802
8,G5C C36A,0.0489
9,U37A U60C,0.192
10,G39A C48G,0.507
11,C14G G50U,0.639
12,G53C C66U,0.918
13,A70C A87C,0.831
14,U23G A71C,0.256
15,G38U G59U,0.284
16,C48A C61U,0.911
17,G10U C64G,0.669
18,A42U A71G,0.431
19,G5U C62U,0.467
20,G2A C15U,0.113
21,A43G G59C,0.637
22,C33G C58G,0.185
23,G82U A87G,0.387
24,G54C C66U,0.917

row,Variant,self-cleavage
1,G38A G76U,0.202
2,G10C A51U,0.923
3,U47G G53A,1.15
4,C49G G52U,0.48
5,A8U G73U,0.199
6,C61U A77U,0.475
7,G34C G81U,0.0639
8,U27G G28A,0.499
9,G28C G73U,0.154
10,C41U A70U,0.936
11,C36U A56C,0.888
12,G17U G28U,0.0923
13,C7G G10A,0.128
14,G50C G68A,0.563
15,A8G G34A,0.095
16,G68C A87C,0.73
17,G25U G82C,0.0755
18,G34U C61G,0.378
19,G39A,0.51
20,A16G C85U,0.969
21,G6U U12A,0
22,C63A G80A,0.388
23,A56C U60G,0.68
24,C22G U46C,0.116

row,Variant,self-cleavage
1,U69G G74C,0.383
2,U27A U37C,0.578
3,U9A A42G,0.361
4,G1C A8C,0
5,C15U U20C,0
6,C44U C61G,0.786
7,A43C A71G,0.762
8,G73C A77U,0.151
9,G35C G59U,0.204
10,G54C C58G,1.04
11,C21G C64G,0
12,C15U C86U,0.895
13,G29C C41A,0
14,U20A G53C,0.0773
15,G31U C86A,0.394
16,G28C G53C,0
17,U27G C36U,0.322
18,A8G A71C,0.447
19,C44A A78G,0.175
20,U27G A83G,0.755
21,C18U G82C,0.166
22,G55U A77G,0.607
23,G40A,0.962
24,C41U G67C,0.554

row,Variant,self-cleavage
1,G25C G54U,0.0652
2,C30A A70C,0.491
3,G25U C48G,0
4,U69C C85A,1.14
5,U23C G55U,1.08
6,G34U G82U,0.0631
7,C14G G54C,0.277
8,C30A G82U,0.166
9,U72C A83G,0.318
10,C62U C64A,0.845
11,U20G G54C,0.571
12,C49G A70C,0.415
13,A70G A77U,0.426
14,G2A C49A,0.122
15,G31A G76U,0.749
16,G1U C21U,0.348
17,C4G C41A,0.162
18,C49U G68A,0.987
19,A56C C64U,1.12
20,C32A A45U,0.151
21,C7A A45U,0.332
22,G11U A51G,0.415
23,U12C G68U,0.284
24,C62U U79C,0.432

row,Variant,self-cleavage
1,C26A G67A,1.01
2,U46G U60G,0.415
3,C18A G29A,0.0604
4,C7G C14A,0.0923
5,G11U C58A,0.326
6,G52C G81C,0.242
7,G59U C85A,0.749
8,A56G U72G,0.677
9,C14A C19U,0.182
10,G5C C49U,0.0755
11,G73A A78C,0.265
12,C64U G76A,1.01
13,C19A U60C,0.107
14,U12G C44G,0.475
15,C21G G52C,0.111
16,G5A G38C,0.208
17,A71U G81U,0.185
18,C58G C61A,1.14
19,G35C C36U,0.108
20,C30A C84A,0.295
21,C19A A45C,0.0755
22,G55U G74A,0.668
23,C15U C41U,1.05
24,G39C A51C,0.291

row,Variant,self-cleavage
1,U72C C86A,0.712
2,G5A G74U,0.0326
3,C18G G67U,0.101
4,C4G A45G,0.201
5,C30U C84G,0.306
6,C22A G31C,0
7,A77U G81A,0.185
8,G68C G81C,0.0594
9,A8C C33A,0.0504
10,C4G C15A,0.142
11,C26A C49A,1.11
12,C14A C32A,0.148
13,C32G G53U,0.196
14,G52C C85G,1.03
15,C26A C84A,0.787
16,G2C G5C,0.237
17,U47G A56C,1.09
18,C14U A87G,1.07
19,G74A A77C,0.231
20,G39U G50A,0.681
21,C57U G68U,1.17
22,G11U G67C,0.262
23,U47C A70U,0.864
